Data reported in PMC3547835.

Assays:
[1] = target: RHDV VP60 P domain fragment (a.a. 228-579), JX/CHA/97 isolate strain (rabbit hemorrhagic disease virus (JX/CHA/97 isolate strain)); experiment: crystal structure; P domain (a.a. 228-579) crystals, space group P212121, hanging drop at 289 K, 0.1 M sodium acetate, 1.1 M succinic acid pH 5.5, 1.0% PEG2000MME; 2.0 Å; dimer in the asymmetric unit
[2] = target: RHDV major capsid protein VP60 (in the native virion, HYD isolate strain) (rabbit hemorrhagic disease virus (HYD isolate strain)); experiment: cryo-EM structure; RHDV virions purified from infected rabbit livers, TNE buffer, vitrified; FEI Titan Krios 300 keV; ~36,000 particles; 6.5 Å overall (FSC 0.5), 5.5 Å in the inner shell; pseudo-atomic model by docking of the S and P crystal structures and MDFF

RHDV VP60 P domain fragment (a.a. 228-579), JX/CHA/97 isolate strain (domain or fragment)
stoichiometry N [1]: 2

RHDV major capsid protein VP60 (in the native virion, HYD isolate strain) (natural protein)
stoichiometry N [2]: 180
